Results on seven molecules are retold here after US20140242077A1 (AbbVie / Abbott, published 2014).

To fix the notation:
T1: LAG3 (human, UniProt P18627 23-525)
T1 construct: whole, on cells; The intended T-cell surface marker of the LAG3 variable domains
T1 sequence (looked up): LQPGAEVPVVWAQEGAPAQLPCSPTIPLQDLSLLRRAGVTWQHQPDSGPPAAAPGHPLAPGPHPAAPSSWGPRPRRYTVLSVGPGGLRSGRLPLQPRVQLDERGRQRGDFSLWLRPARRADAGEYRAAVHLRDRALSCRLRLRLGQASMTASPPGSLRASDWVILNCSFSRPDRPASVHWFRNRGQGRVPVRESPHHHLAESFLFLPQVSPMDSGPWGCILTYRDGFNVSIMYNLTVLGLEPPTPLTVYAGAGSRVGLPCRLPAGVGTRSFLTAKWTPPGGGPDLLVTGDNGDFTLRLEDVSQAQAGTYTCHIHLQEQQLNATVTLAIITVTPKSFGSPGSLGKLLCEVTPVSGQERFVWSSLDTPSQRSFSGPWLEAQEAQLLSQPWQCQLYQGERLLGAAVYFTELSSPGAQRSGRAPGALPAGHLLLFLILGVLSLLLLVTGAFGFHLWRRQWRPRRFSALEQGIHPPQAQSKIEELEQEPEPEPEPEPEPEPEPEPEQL

B1: DVD2555 (bispecific antibody)
VH: QVQLVESGGGVVQPGRSLRLDCKASGITFSNSGMHWVRQAPGKGLEWVAVIWYDGSKRYYADSVKGRFTISRDNSKNTLFLQMNSLRAEDTAVYYCATNDDYWGQGTLVTVSSASTKGPQVQLQQWGAGLLKPSETLSLTCAVYGGSFSDYYWNWIRQPPGKGLEWIGEINHNGNTNSNPSLKSRVTLSLDTSKNQFSLKLRSVTAADTAVYYCAFGYSDYEYNWFDPWGQGTLVTVSS
VL: EIVLTQSPATLSLSPGERATLSCRASQSVSSYLAWYQQKPGQAPRLLIYDASNRATGIPARFSGSGSGTDFTLTISSLEPEDFAVYYCQQSSNWPRTFGQGTKVEIKRTVAAPEIVLTQSPATLSLSPGERATLSCRASQSISSYLAWYQQKPGQAPRLLIYDASNRATGIPARFSGSGSGTDFTLTISSLEPEDFAVYYCQQRSNWPLTFGQGTNLEIKR
notes: Four-chain DVD-Ig; also called DVD2555H/DVD2555L; PD1/LAG3 DVD-Ig
B2: DVD2557 (bispecific antibody)
VH: QVQLQQWGAGLLKPSETLSLTCAVYGGSFSDYYWNWIRQPPGKGLEWIGEINHNGNTNSNPSLKSRVTLSLDTSKNQFSLKLRSVTAADTAVYYCAFGYSDYEYNWFDPWGQGTLVTVSSASTKGPQVQLVESGGGVVQPGRSLRLDCKASGITFSNSGMHWVRQAPGKGLEWVAVIWYDGSKRYYADSVKGRFTISRDNSKNTLFLQMNSLRAEDTAVYYCATNDDYWGQGTLVTVSS
VL: B1 VL with V29I, S91R, R96L, K103N, V104L, I142V, R204S, L209R, N216K, L217V
notes: Four-chain DVD-Ig; also called DVD2557H/DVD2557L; LAG3/PD1 DVD-Ig
B3: DVD2556 (bispecific antibody)
VH: QVQLVESGGGVVQPGRSLRLDCKASGITFSNSGMHWVRQAPGKGLEWVAVIWYDGSKRYYADSVKGRFTISRDNSKNTLFLQMNSLRAEDTAVYYCATNDDYWGQGTLVTVSSASTKGPSVFPLAPQVQLQQWGAGLLKPSETLSLTCAVYGGSFSDYYWNWIRQPPGKGLEWIGEINHNGNTNSNPSLKSRVTLSLDTSKNQFSLKLRSVTAADTAVYYCAFGYSDYEYNWFDPWGQGTLVTVSS
VL: B1 VL
notes: Four-chain DVD-Ig; also called DVD2556H/DVD2556L; PD1/LAG3 DVD-Ig
B4: DVD2567 (bispecific antibody)
VH: QVQLQQWGAGLLKPSETLSLTCAVYGGSFSGYYWSWIRQSPEKGLEWIGEINHGGYVTYNPSLESRVTISVDTSKNQFSLKLSSVTAADTAVYYCARDYGPGNYDWYFDLWGRGTLVTVSSASTKGPQVQLQQWGAGLLKPSETLSLTCAVYGGSFSDYYWNWIRQPPGKGLEWIGEINHNGNTNSNPSLKSRVTLSLDTSKNQFSLKLRSVTAADTAVYYCAFGYSDYEYNWFDPWGQGTLVTVSS
VL: EIVLTQSPATLSLSPGERATLSCRASQSVSSYLAWYQQKPGQAPRLLIYDASNRATGIPARFSGSGSGTDFTLTISSLEPEDFAVYYCQQRSNWPPALTFGGGTKVEIKRTVAAPEIVLTQSPATLSLSPGERATLSCRASQSISSYLAWYQQKPGQAPRLLIYDASNRATGIPARFSGSGSGTDFTLTISSLEPEDFAVYYCQQRSNWPLTFGQGTNLEIKR
notes: Four-chain DVD-Ig; also called DVD2567H/DVD2567L; 41BB/LAG3 DVD-Ig
B5: DVD2568 (bispecific antibody)
VH: QVQLQQWGAGLLKPSETLSLTCAVYGGSFSGYYWSWIRQSPEKGLEWIGEINHGGYVTYNPSLESRVTISVDTSKNQFSLKLSSVTAADTAVYYCARDYGPGNYDWYFDLWGRGTLVTVSSASTKGPSVFPLAPQVQLQQWGAGLLKPSETLSLTCAVYGGSFSDYYWNWIRQPPGKGLEWIGEINHNGNTNSNPSLKSRVTLSLDTSKNQFSLKLRSVTAADTAVYYCAFGYSDYEYNWFDPWGQGTLVTVSS
VL: B4 VL
notes: Four-chain DVD-Ig; also called DVD2568H/DVD2568L; 41BB/LAG3 DVD-Ig
B6: DVD2569 (bispecific antibody)
VH: QVQLQQWGAGLLKPSETLSLTCAVYGGSFSDYYWNWIRQPPGKGLEWIGEINHNGNTNSNPSLKSRVTLSLDTSKNQFSLKLRSVTAADTAVYYCAFGYSDYEYNWFDPWGQGTLVTVSSASTKGPQVQLQQWGAGLLKPSETLSLTCAVYGGSFSGYYWSWIRQSPEKGLEWIGEINHGGYVTYNPSLESRVTISVDTSKNQFSLKLSSVTAADTAVYYCARDYGPGNYDWYFDLWGRGTLVTVSS
VL: EIVLTQSPATLSLSPGERATLSCRASQSISSYLAWYQQKPGQAPRLLIYDASNRATGIPARFSGSGSGTDFTLTISSLEPEDFAVYYCQQRSNWPLTFGQGTNLEIKRTVAAPEIVLTQSPATLSLSPGERATLSCRASQSVSSYLAWYQQKPGQAPRLLIYDASNRATGIPARFSGSGSGTDFTLTISSLEPEDFAVYYCQQRSNWPPALTFGGGTKVEIKR
notes: Four-chain DVD-Ig; also called DVD2569H/DVD2569L; LAG3/41BB DVD-Ig
B7: DVD2570 (bispecific antibody)
VH: QVQLQQWGAGLLKPSETLSLTCAVYGGSFSDYYWNWIRQPPGKGLEWIGEINHNGNTNSNPSLKSRVTLSLDTSKNQFSLKLRSVTAADTAVYYCAFGYSDYEYNWFDPWGQGTLVTVSSASTKGPSVFPLAPQVQLQQWGAGLLKPSETLSLTCAVYGGSFSGYYWSWIRQSPEKGLEWIGEINHGGYVTYNPSLESRVTISVDTSKNQFSLKLSSVTAADTAVYYCARDYGPGNYDWYFDLWGRGTLVTVSS
VL: B6 VL
notes: Four-chain DVD-Ig; also called DVD2570H/DVD2570L

Substitutions are numbered along the chain they refer to.

The target of the first experiment is T2, PD1 (human, UniProt Q15116 25-288).
T2 construct: whole, on cells; The intended T-cell surface marker of the PD1 variable domains; also called programmed cell death protein 1
T2 sequence (Q15116 25-288): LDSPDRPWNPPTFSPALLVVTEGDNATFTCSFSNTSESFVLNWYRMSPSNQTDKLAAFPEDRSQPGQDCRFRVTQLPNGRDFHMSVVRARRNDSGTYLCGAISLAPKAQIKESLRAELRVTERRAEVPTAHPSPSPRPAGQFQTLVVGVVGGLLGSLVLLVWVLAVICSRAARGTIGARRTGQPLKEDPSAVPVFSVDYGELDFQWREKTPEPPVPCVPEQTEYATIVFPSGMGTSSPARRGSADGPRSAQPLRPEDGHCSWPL
The experiment is described as follows: flow cytometry on activated human T-cells. As for the experimental part:
(§1) PBMCs were isolated from heparinized leukopaks by use of Ficoll density gradient centrifugation. PBMCs were stimulated overnight with CD2/CD3/CD28 beads from a T-Cell Activation/Expansion Kit (Miltenyi Biotech, Germany) according to the manufacturer's protocol. Activated T-cells were incubated with primary antibody for 1 hour at 4° C., washed in PBS, and then incubated for 30 minutes with fluorescently-labeled secondary anti-Fc specific antibody (Jackson ImmunoResearch, West Grove, Pa.). Activated T-cell samples were analyzed on a FACSCantoII cytometer (BD) and data were analyzed with FlowJo software. Geometric mean fluorescence intensity was compared to DVD-Ig protein concentration by graphing in the GraphPad Prism software package (see FIG. 14).
(In general: In flow cytometry, cells or beads pass a laser one at a time.)
As to B1, the binding result is on record as “binds”.

As for B2, the binding result is listed as “binds”.

Regarding B3, the binding result is listed as “binds”.

Another experiment concerns the target T1, LAG3. The experiment is described as follows: flow cytometry on activated human T-cells. As for the experimental part:
as §1
Turning to B4, the binding result was “binds”.

Take B5: the binding result is recorded as “binds”.

For the molecule B6, the binding result was “binds”.

As to B7, the binding result was “binds”.

The target of a further experiment is T3, 4-1BB (human, UniProt Q07011 24-255).
T3 construct: whole, on cells; The intended T-cell surface marker of the 41BB variable domains; also called CD137; TNFRSF9
T3 sequence (Q07011 24-255): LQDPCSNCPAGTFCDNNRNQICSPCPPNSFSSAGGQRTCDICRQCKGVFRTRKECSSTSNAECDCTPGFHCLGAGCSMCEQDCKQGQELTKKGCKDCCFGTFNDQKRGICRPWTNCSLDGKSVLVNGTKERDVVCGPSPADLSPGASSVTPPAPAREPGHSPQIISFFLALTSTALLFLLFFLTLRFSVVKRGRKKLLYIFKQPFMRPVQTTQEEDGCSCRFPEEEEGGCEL
The experiment is described as follows: flow cytometry on activated human T-cells. The method, then:
as §1
In the case of B4, the binding result is “binds”.

In the case of B5, the binding result is given as “binds”.

For the molecule B6, the binding result is “binds”.

With B7, the binding result is on record as “binds”.
